These results are taken from US20250210128A1 (ECOLE POLYTECHNIQUE FEDERALE DE LAUSANNE EPFL, published 2025).

No end group written: not given here.

Assay in all cases: cell-based or functional assay
The target of one test is Cdes2 CXCR4 design (human).
Test [1] concerns the target Ldes CXCR4 (library-selected combination receptor variant) (human).
For test [2], the target named is CLdes CXCR4 sensor (Cdes2 design combined with H113N) (human).

B1: CXCL12 1-17 peptide, wild-type (17 N-terminal residues of CXCL12) (peptide)
peptide: KPVSLSYRCPCRFFESH-NH2
modifications: cysteine pairing not given here
In the case of B1, in the test with Cdes2 CXCR4 design, the “potency in G-coupling (Gi BRET)” value is 3.2 fold over WT and the “potency in calcium mobilization” value is 3.1 fold over WT. Further, the Gi potency in test [1] was ~11 fold over CXCR4 WT scaffold. Besides, the “Gi response (potency/sensitivity)” value in test [2] was above 9 fold over WT.
